Experiment: yeast display, Sf9 membrane polyspecificity reagent, FACS + sequencing; frameworks hold sequencing errors
Summary of the method: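 A nanobody's polyreactivity label depends on the gate it was sorted from. Yeast display cells were stained with 10% biotinylated, detergent-solubilized Sf9 membrane reagent for 1 hour at 4 °C, enriched on streptavidin microbeads and sorted by FACS. The low and high (top ~1%) gates were set on anti-HA fluorescence for expression and streptavidin fluorescence for reagent binding.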

Sequence	polyreactivity (PSR sort gate)
QVQLVESGGGLVQAGGSLRLSCAASVFTFQYYAMGWYRQAPGKERELVAAISRRGGRTDYADSVKGRFTISRDNAKNTVYLQMNSLKPEDTAVYYCARDPGAFEYWGQGTQVTLSS	high polyreactivity
QVQLVESGGGLVQAGGSLRLSCAASVIIFNLYAMGWYRQAPGKERELVAAISWSGGSTYYADSVKGRFTISRDNAKNTVYLQMNSLKPEDPAVYYCATSFLYPYFDEDDYWGQGTQVTVSS	high polyreactivity
QVQLVESGGGLVQAGGSLRLSCAASVITFWIYAMGWYRQAPGKERELVAAITGRGGSTYYADSVKGRFTISRDNAKNTVYLQLNSLKPEDTAFYYCAAESWYSTYDYWGQGTQVTVTS	high polyreactivity
QVQLVESGGGLVQAGGSLRLSCAASVLIFDGYAMGWYRQAPGKEREFVADIDFGGGSTYYADSVKGRFTISRDNAKNTVYLQMNSLKPEDTAVYYCNAVWDDYGFYSPYVVVEYDYWGQGTQVTVSS	high polyreactivity
QVQLVESGGGLVQAGGSLRLSCAASVLIFHTYGMGWYRQAPGKERELVADITDGGSTYYADSVKGRFTISRDNAKNTVYLQMNSLKPEDTAVYYCAADERGVFLTYWYFWYDYWGQGTQETVSS	low polyreactivity
QVQLVESGGGLVQAGGSLRLSCAASVLIIWLYTMGWYRQAPGKERELVAAIDWSGGSTYYADSVKGRFTMSRDIAKNTVYLQMNRLKPEDTAVYYCAADPEPSYRFDYGGQGTQVTVSS	low polyreactivity
QVQLVESGGGLVQAGGSLRLSCAASVRIFATNAMGWSRQAPGKERELVARISRRGGSTNYADSVKGRFTISRDNAKNTVYLQMNSLKPEDTAVYYCNVSFYWYRWYALLDYWGQVTQVTVSS	high polyreactivity
QVQLVESGGGLVQAGGSLRLSCAASVRIFFRYAMGWYRQAPGKERELVAAIRKSGGSTYYADSVKGRFTISRDNAKNTVYFQMNSLKPEDTAVYYCAADVYYYYGRKYNYWGQGTQVTVSS	low polyreactivity
QVQLVESGGGLVQAGGSLRLSCAASVRIFGSNVMGWYRQAPGKERELVASISSGGTTYYADSVKGLFTISRDNAKNTVYLQMNSLKPEDTAGYYCAKQWTRIYQYRWYPGTRTGYDYWGHGTQVTVSS	high polyreactivity
QVQLVESGGGLVQAGGSLRLSCAASVRIFGSNVMGWYRQAPGKERELVASISSGGTTYYADSVKGRFTISRDNAKNTVYLHMNSLKPEDTAVYYCAKQWTRIYQYRWYPGTRTGYDYWGQGTQVTVSS	high polyreactivity
QVQLVESGGGLVQAGGSLRLSCAASVRIFQRNVMGWYRQAPGKEWELVATINWSGASTYYADSVKGRFTISRDNAKNTVYLQMNSLTPEDTAVYYCAKDGHYPLVYLAFDYWGQGTQVTVSS	low polyreactivity
QVQLVESGGGLVQAGGSLRLSCAASVRIFYGYTMGWYRQAPGKERELVASIDYSTGRTYYADSVKGRFTISRDNAKNTVYLLMNSLKPEDTAVYYCNADPNYSFLRYDYWGQGTQVTVSS	high polyreactivity
QVQLVESGGGLVQAGGSLRLSCAASVRNYGINVMVWYRQAPGKERELVAAISYRTGSTYYADSVKGRFTISRDNAKNTVYLQMNSLKPEDTAVYYCDALRSIRTAWYDYWGQGTQVTVSS	high polyreactivity
QVQLVESGGGLVQAGGSLRLSCAASVRTFSAYAMGCSRQAPGKERELVARITSVDSTNYSDSVNGRFTFSRDNAKNNVYLQMNSLKPEDTAVYSCNATFGYPFVDYDDYWGQGTQVTVSS	low polyreactivity
QVQLVESGGGLVQAGGSLRLSCAASVRTYGFNTMGSYRQAPGKERELVAANTTSGGSTYYADSVKGRFTISRDNAKNTVYLQMNSLKPDDSAVYYCAKDYYSKHFPIYEYWGQGTQVTVSS	low polyreactivity
QVQLVESGGGLVQAGGSLRLSCAASVSIFEWYAMGRYRQAHGKERELVAAINSGGSTYYADSVKGRFTISRDNAKNTVYLQMNSLKPEDTAVYYCAAGTQAHAYVVRPIEMDYWGQGTQVTVSS	low polyreactivity
QVQLVESGGGLVQAGGSLRLSCAASVSIFVRNAMGWYRPAPGKERELGAADSVKGRFTISRDNAKNTVYLQMNSLKPEDTAVYYCAADEWIVHDGYYSSYYYWGQGTQVTVSS	low polyreactivity

Source: the nanobody polyreactivity screen of Harvey et al. (2022)
